{
  "source": "patent US20040058403A1",
  "molecular_target": "peptide(18mer)-BodipyFL",
  "data": [
    {"substance": "NlpA-[Dig scFv] (26-10 anti-digoxin/digoxigenin scFv fused to the NlpA anchor) (from UniProt P04846 24-29)", "values": [
      {"measurement": "M (mean fluorescence, FL1-Height)", "value": 6.78}
    ]}
  ]
}
